Tests used:
HCC38 cell line = test: In vitro cell viability assay (CellTiter-Glo), HCC38; format: cell-based, human; settings: conjugated to synthon CZ
Procedure: The tumor cell lines HCC38 (breast cancer), NCI-H1650 (NSCLC) and NCI-H847 (small cell lung cancer cell line) were obtained from American Type Culture Collection (ATCC). Cells were grown in 96-well culture plates using recommended growth media overnight at a density of 5×10^3 (HCC38) or 20×10^3 (NCI-H847) or 40×10^3 (NCI-H1650) per well. The following day, treatments were added in fresh media to triplicate wells. Cellular viability was determined 5 days later using the CellTiter-Glo Luminescent Cell Viability Assay kit (Promega), as directed in the manufacturer's protocol. Cell viability was assessed as percentage of control untreated cells.

[1] = Conjugation observation (precipitation after conjugation, Method A); format: physicochemical; settings: conjugated to synthon CZ
Procedure: Table 6 provides cell surface binding and cytotoxicity activity of anti-B7-H3 chimera ADCs against breast cancer cell HCC38 expressing human B7-H3.
A solution of Bond-Breaker™ tris(2-carboxyethyl)phosphine (TCEP) solution (10 mM, 0.017 mL) was added to a solution of antibody (10 mg/mL, 1 mL) preheated to 37° C. The reaction mixture was kept at 37° C. for 1 hour. The solution of reduced antibody was added to a solution of synthon (3.3 mM, 0.160 mL in DMSO) and gently mixed for 30 minutes. The reaction solution was loaded onto a desalting column (PD10, washed with Dulbecco's phosphate-buffered saline [DPBS] 3× before use), followed by DPBS (3 mL). The purified ADC solution was filtered through a 0.2 micron, low protein-binding 13 mm syringe-filter and stored at 4° C.

B1: chAb6: chimeric anti-B7-H3 antibody huIgG1/k, parental hybridoma Ab6; VH SEQ ID NO: 56, VL SEQ ID NO: 60 (antibody, V domains shown)
VH: QVQLQQSGAELMKPGASVKISCKATGYTFSRYWIEWVKQRPGHGLEWIGEILPGSGSTNYNEKFKGKATFTADTSSNTAYMQVSSLTSEDSAVHYCARRGYGYVPYALDYWGQGTSVTVSS
VL: EIQMTQTTSSLSASLGDRVTISCRASQDISNSLNWYQQKPDGTVNLLIYYTSRLYSGVPSRFSGSGSGTDYSLTISNLEQEDIATYFCQQGNTLPYTFGGGTKLEIK
modifications: human IgG1/kappa constant regions; Synthetic chAb6 VH amino acid sequence; Synthetic chAb6 VL amino acid sequence
HCC38 cell line
  cytotoxicity in cells expressing human B7-H3 / HCC38 cell line (in words): weak cytotoxicity
[1]
  precipitation following conjugation to synthon CZ (in words): precipitated

B2: chAb16: chimeric anti-B7-H3 antibody huIgG1/k, parental hybridoma Ab16; VH SEQ ID NO: 72, VL SEQ ID NO: 76 (antibody, V domains shown)
VH: EVKLLESGGGLVQPGGSLKLSCAASGFDFSRYWMSWVRQAPGKGLEWIGEINPDSSTINYTPSLKDKFIISRDNAKNTLYLQMSKVRSEDTALYYCARPGFGNYIYAMDYWGQGTSVTVSS
VL: DIQMTQTTSSLSASLGDRVTINCRASQDISNFLNWYQQKPDGTVKLLIYYTSRLYLGVPSRFSGSGSGTDYSLTISNLEQEDIATYFCQQGNTLPPTFGGGTKLEIK
modifications: human IgG1/kappa constant regions; Synthetic chAb16 VH amino acid sequence; Synthetic chAb16 VL amino acid sequence
HCC38 cell line
  cytotoxicity in cells expressing human B7-H3 / HCC38 cell line (in words): weak cytotoxicity
[1]
  precipitation following conjugation to synthon CZ (in words): precipitated
